Test results: patent publication US20220193237A1 (Bristol-Myers Squibb, published 2022)
Substitutions are numbered along the chain they refer to. Blank lines part the entries; values can stand above or below the binder they belong to.

Assays:
[1] = biological target: T1, monomeric human CTLA-4 (human, UniProt P16410 36-161, limits assumed); test: SPR, captured Fab, pH 6.0
T1 construct: Soluble monomeric analyte in SPR; also called huCTLA-4
T1 sequence: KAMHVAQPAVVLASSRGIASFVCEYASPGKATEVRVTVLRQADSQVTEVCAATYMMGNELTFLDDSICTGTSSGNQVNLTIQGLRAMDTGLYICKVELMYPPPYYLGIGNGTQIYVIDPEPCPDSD
Description: (§1) Binding of selected variants to human CTLA-4 was determined essentially as described in Example 3. […] Nomenclature and sequences for these antibodies is provided at Tables 6 and 7, and in the sequence listing as summarized at Table 8.
(§2) Monomeric human CTLA-4 was flowed as analyte with up to 2 μM top concentration. Between cycles, the capture surface was regenerated with 75 mM phosphoric acid. Experiments were run on a BIACORE® T200 instrument at 37° C. Running buffers were HEPES buffered saline for pH 7.4 experiments and Bis-Tris buffered saline for lower pH experiments. […] Double referenced sensorgrams were fitted to a 1:1 Langmuir binding model with mass transport to determine equilibrium dissociation constants (KD), as well as association (kₐ) and dissociation (kd) rate constants where appropriate.

[2] = biological target: T1, monomeric human CTLA-4; test: SPR, captured Fab, pH 7.4
Description: as §1, §2

[3] = biological target: T1, monomeric human CTLA-4; test: SPR, captured Fab, pH 6.0 vs 7.4
Description: as §1, §2

[4] = biological target: T2, human CTLA-4 on 58 α-β-CTLA-4/CD3 ζ cells (human; mouse (mCD3ζ)); test: flow cytometry (APC mean FI), Fab on 58αβ-CTLA4/mCD3ζ cells, pH 6.2
T2 construct: also called 58αβ-hCTLA4/mCD3ζ cells; 58αβ-CTLA4/mCD3ζ cells
Description: Antibodies were titrated from 100 μg/mL at a 1:4 dilution across 12 points in pH-specific buffers and incubated for 30-60 minutes. Buffers contained HBSS, 2% FBS^HI, 0.02% sodium azide, 2 mM EDTA, and sodium phosphate buffer (pH 5.4). Sodium phosphate buffer was added until desired pH was reached (7.2, 6.7, 6.2). Approximately 3e5 cells/well were tested for each cell line. […] Detection was done with a monovalent anti-hKappa secondary nanobody conjugated to Alexa647 and used at a dilution of 1:2000. Cells were fixed with BD Fix Solution I for 30 minutes prior to resuspension in pH-specific buffers and reading on the cytometer (BD Fortessa).
The experimental protocol was the same as used to obtain the data of FIGS. 16A-C.

[5] = biological target: T3, monomeric cyno CTLA-4 (cynomolgus macaque (Macaca fascicularis), UniProt G7PL88 36-161); test: SPR, Fab, monomeric cyno CTLA-4 as analyte; koff (s^-1, linear axis 0 to 0.3) plotted against pH
T3 construct: also called CTLA-4 from the cynomolgus macaque Macaca fascicularis
T3 sequence: T1 sequence with S14N, I18T, L106M
Description: The pH dependence of binding of selected antibodies of the present invention to human CTLA-4 and cyno CTLA-4 was measured by surface plasmon resonance (SPR) spectroscopy, essentially as described in Example 3. Briefly, antibodies were studied as monovalent Fab fragments. Anti-human kappa polyclonal capture antibody (Southern Biotech, Ala. USA) was immobilized on a ethylenediamine-blocked CM4 sensor chip in a Biacore T200 surface plasmon resonance system. Fab fragments of selected antibodies of the present invention were then captured on one flow cell each. […] Running buffer was 20 mM BisTris, 150 mM NaCl, 0.05% Tween-20, 1 g/L BSA, at a pH ranging from 5.5 to 7.4 in 0.1-0.2 pH unit intervals (12 total). The surface was regenerated with 1/200 H₃PO₄ between cycles. […] Where required, the Rₘₐₓ was fixed by calculating expected binding based on capture level and apparent activity from other fits for the same Fab.

Kd [1]: 13 nM
kon [1]: 1.7e+06 M⁻¹ s⁻¹
t1/2 [1]: 32 s
Kd [2]: 210 nM
KD 7.4/6 (APBP) [3]: 16
B1: ipi.93 Fab (Fab, V domains shown)
VH: QVQLVESGGGVVQPGRSLRLSCAASGFTFSSYTMHWVRQAPGKGLEWVTFISYDGNNKYYADSVKGRFTISRDNSKNTLYLQMNSLRAEDTAIYYCARTGWLGPFDYWGQGTLVTVSS
VL: EIVLTQSPGTLSLSPGERATLSCRASQEVGDSELAWYQQKPGQAPRLLIYGAFSRATGIPDRFSGSGSGTDFTLTISRLEPEDFAVYYCQQYGSSPWTFGQGTKVEIKR
notes: Tested as monovalent Fab

Kd [1]: 6.5 nM
kon [1]: 2e+06 M⁻¹ s⁻¹
t1/2 [1]: 53 s
Kd [2]: 170 nM
KD 7.4/6 (APBP) [3]: 27
B2: ipi.88 Fab (Fab, V domains shown)
VH: B1 VH with S31H, N56H, T99H
VL: not shown
notes: Tested as monovalent Fab

Kd [1]: 1.5 nM
kon [1]: 1.2e+06 M⁻¹ s⁻¹
t1/2 [1]: 385 s
Kd [2]: 45 nM
kon [2]: 490000 M⁻¹ s⁻¹
t1/2 [2]: 32 s
KD 7.4/6 (APBP) [3]: 31
ka 6/7.4 [3]: 2.5
t1/2 6/7.4 [3]: 12
EC50 (read off the curve) [4]: ~0.07 µg/mL
binding result [5]: binds
B3: ipi.101 Fab (Fab, V domains shown)
VH: B1 VH with S31H, N56H
VL: not shown
notes: Tested as monovalent Fab

Kd [1]: 12 nM
kon [1]: 1.6e+06 M⁻¹ s⁻¹
t1/2 [1]: 36 s
Kd [2]: 180 nM
KD 7.4/6 (APBP) [3]: 15
B4: ipi.86 Fab (Fab, V domains shown)
VH: B1 VH with S31H, T99H
VL: not shown
notes: Tested as monovalent Fab

Kd [1]: 2.8 nM
kon [1]: 1.9e+06 M⁻¹ s⁻¹
t1/2 [1]: 126 s
Kd [2]: 280 nM
KD 7.4/6 (APBP) [3]: 99
B5: ipi.95 Fab (Fab, V domains shown)
VH: B1 VH with S31H, N56H
VL: B1 VL
notes: Tested as monovalent Fab

Kd [1]: 17 nM
kon [1]: 1.8e+06 M⁻¹ s⁻¹
t1/2 [1]: 22 s
Kd [2]: > 1000 nM
KD 7.4/6 (APBP) [3]: > 59
B6: ipi.92 Fab (Fab, V domains shown)
VH: B1 VH with S31H, N56H, T99H
VL: B1 VL
notes: Tested as monovalent Fab

Kd [1]: 5.2 nM
kon [1]: 1.9e+06 M⁻¹ s⁻¹
t1/2 [1]: 70 s
Kd [2]: 270 nM
KD 7.4/6 (APBP) [3]: 52
B7: ipi.94 Fab (Fab, V domains shown)
VH: B1 VH with S31H
VL: B1 VL
notes: Tested as monovalent Fab
